Data taken from patent publication US20260000736A1, “PURIFIED LACTOFERRIN COMPOSITIONS AND METHODS OF USE” (Lactea Therapeutics LLC, priority 2023, published 2026).
Values joined by “and” are separate entries in the source; they are usually repeats but may differ in a detail not shown here. Identical values can stand only once.

Key:
[1] = ITC-based assay, binding to LPS
[2] = test system: Staphylococcus aureus; experiment: Biofilm formation, crystal violet assay; format: cell-based; details: 24 hours of growth
[3] = Differential Scanning Calorimetry (DSC) of apolactoferrin and hololactoferrin forms; format: physicochemical; details: 10 mg/mL
Method: Di[…] Calorimetry (DSC) was used to assess the hololactoferrin and apolactoferrin forms through monitoring unfolding temperatures of lactoferrin samples using a nanoDSC (TA Instruments, Lindon, UT) according to standard DSC protocols known to those of skill in the art (e.g., see Hinz et al “M[…] […] OF […] ON […] DI[…] CALORIMETRY”; herein incorporated by reference for all purposes.
API-E2 Lactoferrin (10 mg/mL), produced as described herein, was assessed by DSC. […] The lack of other peaks indicates the lack of contaminants and impurities and can assess API-E2 as ˜100%. […] Additionally, the lack of other peaks also indicated the purity of API-E2 Lactoferrin. […] The API-E2 hololactoferrin peak has a Tm of 88.38+/−0.8 C and a delta H of 632.7+/−7.2 kJ/mol. The hololactoferrin natively accounted for on average 8.74+/−1.39% of the total API-E2 lactoferrin with apolactoferrin accounting for the rest in the samples tested. However, the hololactoferrin percentage can be naturally variable. The API-E2 was calculated by this technique to contain virtually 100% pure lactoferrin.
The assay was also performed with heat-treated API-E2 Lactoferrin. API-E2 Lactoferrin was heated across a range of 50-100° C.
Lab-grade standard lactoferrin and a commercially available supplement-grade lactoferrin were also assessed by DSC under the conditions used to assess API-E2 above.

[4] = test system: Streptococcus mutans; experiment: Biofilm formation, crystal violet assay; format: cell-based; details: 24 hours of growth
[5] = test system: E. coli 0157; experiment: Biofilm formation, crystal violet assay; format: cell-based; details: for Biofilm Inhibition, Replicate 1 / Biofilm Inhibition, Replicate 2 / Biofilm Inhibition, Replicate 3: 24 hours
Method: Lactoferrin was assessed for biofilm growth inhibition. To study the relative concentration dependent efficacy of Lactea-Lf and the Sigma Aldrich research standard Lactoferrin in inhibiting biofilm formation, Lf was added at concentrations ranging from 2 mg/mL to 0.31 mg/mL (2-fold serial dilution curve) to E. coli 0157 in LB seeded at 10∝CFU/mL and incubated for 37° C. for 24 hours. Lactea Lactoferrin (Lactea-Lf) was produced as described in the above examples. The biofilm was stained using a standard crystal violet assay. A quantification of the inhibition of biofilm formation (FIG. 18A) and an image of a representative plate (FIG. 18B) are shown.

[6] = test system: E. coli 0157; experiment: Bacterial growth inhibition, OD600 after 16 h; format: cell-based; details: 1 mg/mL Lf, 16 h at 37° C.; for Relative Bacterial Growth, Replicate 1 / Relative Bacterial Growth, Replicate 2 / Relative Bacterial Growth, Replicate 3: 10∝CFU/mL E. coli 0157 in LB, OD600 relative to untreated
Method: As an analytical standard for the assessment of Lactoferrin (Lf) activity, 1 mg/mL Lf was added to 10∝CFU/mL E. coli 0157 in LB and incubated for 16 h at 37° C. Lactea Lactoferrin (Lactea-Lf) was produced as described in the above examples. Assessed were three independent lots of Lactea-Lf, impure samples which were generated by co-eluting Lactoperoxidase and Lactoferrin (co-elution), samples with degradation products generated by eluting Lactoferrin from old milk which was left for three days (Degradation Products), and a Sigma Aldrich Lactoferrin L9507 (Research Standard). As shown in FIG. 16 and quantified in Table 5, in the Lactea-Lf lots assessed, less than 5% the total growth of bacteria was observed as assessed by OD600 relative to the growth of untreated bacteria under these conditions. In this case, co-elution samples were samples which have a detectable peak of LPO as observable in MALDI-TOF M/S or HPLC. Degradation Products had identifiable degradation peaks as observed in HPLC or DSC.

[7] = test system: Bifidobacterium longum; experiment: Planktonic growth in culture, OD600; format: cell-based; details: 10-fold serial dilution of Lf, 18 hours
[8] = test system: Extra-Cellular Matrix (ECM) of Caco-2 cells; experiment: Lactoferrin enrichment at the ECM by immunofluorescent imaging in Caco-2 cells; format: cell-based, human; details: varying concentrations, 37° C. for two hours
Method: To assess bioactivity of Lactoferrin, particularly for its potential as an antiviral, binding to the ECM was assessed. Purified Lactoferrin was produced according to Example 1. Caco-2 cells, a human-derived cell culture, cells were allowed to grow for three days after plating on a coverslip such that the cells could proliferate, and the ECM could fully develop. Purified Lactoferrin was then added to the cells at varying concentrations at 37° C. for two hours to allow it to bind as theorized. To directly observe the localization of the API we used Immunofluorescent (IF) imaging and stained both the API and E-cadherin, a cell membrane marker.
Primary localization internally was also observed at low concentrations, but given Lactoferrin has known intracellular roles and a receptor allowing for its uptake, fractional localization of Lactoferrin to the intracellular space was expected. To quantify the localization of the API, the absolute intensity of the fluorescent signal both just outside/along the E-cadherin mark as well as inside the cell was measured.

[9] = test system: ECM of primary buccal cells; experiment: ECM association by immunofluorescence in primary buccal cells; format: cell-based; details: 100 µg/mL for 1 hr at 37 C
Method: Primary buccal cells were next cultured according to a standard protocol (e.g., see Russo et al. Cytotechnology. 2016 October; 68(5): 2105-2114; herein incorporated by reference for all purposes). […] Immunofluorescence imaging was performed as previously described.

[10] = test system: Staphylococcus epidermidis; experiment: Planktonic growth in culture, OD600; format: cell-based; details: 10-fold serial dilution of Lf, 18 hours
[11] = test system: Cryptococcus neoformans; experiment: Biofilm formation, crystal violet assay; format: cell-based; details: 24 hours of growth

B1: Lactea-Lf: bovine lactoferrin purified from raw untreated milk by cation exchange chromatography and filtration according to Example 1 (protein)
chain: APRKNVRWCTISQPEWFKCRRWQWRMKKLGAPSITCVRRAFALECIRAIAEKKADAVTLDGGMVFEAGRDPYKLRPVAAEIYGTKESPQTHYYAVAVVKKGSNFQLDQLQGRKSCHTGLGRSAGWVIPMGILRPYLSWTESLEPLQGAVAKFFSASCVPCIDRQAYPNLCQLCKGEGENQCACSSREPYFGYSGAFKCLQDGAGDVAFVKETTVFENLPEKADRDQYELLCLNNSRAPVDAFKECHLAQVPSHAVVARSVDGKEDLIWKLLSKAQEKFGKNKSRSFQLFGSPPGQRDLLFKDSALGFLRIPSKVDSALYLGSRYLTTLKNLRETAEEVKARYTRVVWCAVGPEEQKKCQQWSQQSGQNVTCATASTTDDCIVLVLKGEADALNLDGGYIYTAGKCGLVPVLAENRKTSKYSSLDCVLRPTEGYLAVAVVKKANEGLTWNSLKDKKSCHTAVDRTAGWNIPMGLIVNQTGSCAFDEFFSQSCAPGRDPKSRLCALCAGDDQGLDKCVPNSKEKYYGYTGAFRCLAEDVGDVAFVKNDTVWENTNGESTADWAKNLNREDFRLLCLDGTRKPVTEAQSCHLAVAPNHAVVSRSDRAAHVKQVLLHQQALFGKNGKNCPDKFCLFKSETKNLLFNDNTECLAKLGGRPTYEEYLGTEYVTAIANLKKCSTSPLLEACAFLTR
binding to LPS [1]: binds to LPS | competition of LPS binding with HS binding [1]: competitive with HS binding | Inhibition of Biofilm Formation [2]: Strong (Lf was deemed to have a strong activity if biofilms were eliminated or significantly reduced to less than 90% less than no treatment at concentrations of 10 mg/mL or less after 24 hours of growth) | % of Total, Apolactoferrin [3]: 91.26 +/− 1.39% | % of Total, Hololactoferrin ([3]; listed as API-E2): 8.74+/−1.39% | Delta H, Apolactoferrin peak ([3]; listed as API-E2): 111.4 ± 2.2 kcal/mol | Delta H, Hololactoferrin peak ([3]; listed as API-E2): 151.2 ± 1.72 kcal/mol | Tm, Apolactoferrin peak ([3]; listed as API-E2): 60.2+/−0.8 C and 60.2 +/− .8 C | Tm, Hololactoferrin peak ([3]; listed as API-E2): 88.38+/−0.8 C and 88.38 +/− .8 C | Inhibition of Biofilm Formation [4]: Strong (Lf was deemed to have a strong activity if biofilms were eliminated or significantly reduced to less than 90% less than no treatment at concentrations of 10 mg/mL or less after 24 hours of growth) | concentrations at which potent biofilm inhibition is seen ([5]; E. coli 0157, 24 hours): ≥ 100 µg/mL | Biofilm Inhibition, Replicate 1 ([5]; [Lf] 0.031 mg/mL): 0.6591 | Biofilm Inhibition, Replicate 2 ([5]; [Lf] 0.031 mg/mL): 0.8959 | Biofilm Inhibition, Replicate 3 ([5]; [Lf] 0.031 mg/mL): 0.7811 | Biofilm Inhibition, Replicate 1 ([5]; [Lf] 0.063 mg/mL): 0.1874 | Biofilm Inhibition, Replicate 2 ([5]; [Lf] 0.063 mg/mL): 0.1722 | Biofilm Inhibition, Replicate 3 ([5]; [Lf] 0.063 mg/mL): 0.2125 | Biofilm Inhibition, Replicate 1 ([5]; [Lf] 0.125 mg/mL): 0.03395 | Biofilm Inhibition, Replicate 2 ([5]; [Lf] 0.125 mg/mL): 0.1076 | Biofilm Inhibition, Replicate 3 ([5]; [Lf] 0.125 mg/mL): 0.0806 | Biofilm Inhibition, Replicate 1 ([5]; [Lf] 0.25 mg/mL): 0.04609 | Biofilm Inhibition, Replicate 2 ([5]; [Lf] 0.25 mg/mL): 0.07314 | Biofilm Inhibition, Replicate 3 ([5]; [Lf] 0.25 mg/mL): 0.07011 | Biofilm Inhibition, Replicate 1 ([5]; [Lf] 0.5 mg/mL): 0.04858 | Biofilm Inhibition, Replicate 2 ([5]; [Lf] 0.5 mg/mL): 0.0748 | Biofilm Inhibition, Replicate 3 ([5]; [Lf] 0.5 mg/mL): 0.08915 | Biofilm Inhibition, Replicate 1 ([5]; [Lf] 1 mg/mL): 0.02346 | Biofilm Inhibition, Replicate 2 ([5]; [Lf] 1 mg/mL): 0.09274 | Biofilm Inhibition, Replicate 3 ([5]; [Lf] 1 mg/mL): 0.02898 | Biofilm Inhibition, Replicate 1 ([5]; [Lf] 2 mg/mL): 0.006072 | Biofilm Inhibition, Replicate 2 ([5]; [Lf] 2 mg/mL): 0.01601 | Biofilm Inhibition, Replicate 3 ([5]; [Lf] 2 mg/mL): −0.01297 | Relative Bacterial Growth, Replicate 1 ([6]; listed as Lactea-Lf Lot 1): 3.15E−09 | Relative Bacterial Growth, Replicate 2 ([6]; listed as Lactea-Lf Lot 1): 0.002228 | Relative Bacterial Growth, Replicate 3 ([6]; listed as Lactea-Lf Lot 1): 0.04512 | Relative Bacterial Growth, Replicate 1 ([6]; listed as Lactea-Lf Lot 2): 0.01532 | Relative Bacterial Growth, Replicate 2 ([6]; listed as Lactea-Lf Lot 2): 0.005292 | Relative Bacterial Growth, Replicate 3 ([6]; listed as Lactea-Lf Lot 2): 0.01281 | Relative Bacterial Growth, Replicate 1 ([6]; listed as Lactea-Lf Lot 3): 0.003621 | Relative Bacterial Growth, Replicate 2 ([6]; listed as Lactea-Lf Lot 3): 0.01059 | Relative Bacterial Growth, Replicate 3 ([6]; listed as Lactea-Lf Lot 3): 0.008635 | total growth of bacteria by OD600 relative to the growth of untreated bacteria [6]: less than 5% | Inhibition of Planktonic Growth [7]: None | Lactoferrin localization at the ECM (IF imaging) [8]: enrichment at the ECM was observed as concentration increased | ECM association of Lactoferrin (immunofluorescence imaging) [9]: strong binding along the ECM | Inhibition of Planktonic Growth [10]: None | Inhibition of Biofilm Formation [11]: Strong (Lf was deemed to have a strong activity if biofilms were eliminated or significantly reduced to less than 90% less than no treatment at concentrations of 10 mg/mL or less after 24 hours of growth)
